Reference: publication PMC9640981, “Plant vernalization proteins contain unusual PHD superdomains without histone H3 binding activity” (The Journal of Biological Chemistry, 2022)
“Also recorded” adds a separate entry of the source.

Tests used:
[1] = tested on: ^15N-labeled Pd VIN3_123-326; assay: NMR (BEST-TROSY) interaction of negatively charged polymers with Pd VIN3 PHD superdomain; type: binding, Phoenix dactylifera
Protocol: (§1) For NMR spectroscopy, A. thaliana VIN3_150-208 and P. dactilyfera VIN3_123-326 were expressed in M9 minimal medium supplemented with 0.4% glucose, antibiotics, trace elements, 25 ml overnight culture, and 2 g of ^15N-H4Cl per liter of expression culture. Cultures were grown and processed essentially as described before. NMR samples containing 50 μM ^15N-labeled VIN3_150-208 or VIN3_123-326 were prepared in aqueous buffer (25 mM Tris pH 8, 150 mM NaCl, and 1 mM DTT). The 50 μM ^15N-labeled VIN3_150-208 or VIN3_123-326 was incubated with 0.5 mM histone H3 peptides resuspended in 25 mM Tris pH 8, 150 mM NaCl, and 1 mM DTT for >30 min before measurement. Spectra were recorded on a Bruker Avance-III spectrometer operating at 600 MHz ^1H frequency and equipped with a 5 mm inverse detection cryogenic probe. BEST-TROSY shift correlation experiments ([45]) were acquired with 256 × 1024 points in t1 and t2, respectively. Spectra were processed in TopSpin version 3.2 (Bruker), with linear prediction in t1, giving a digital resolution of 2.2 and 8.2 Hz/point in the processed data.
Generation of nucleic acid probes for NMR
FLC DNA was used as a template for the design of a dsDNA 60-mer probe, generated by annealing the sequence (5′ […] 3′) and its complementary oligonucleotide for 2 min at 95 °C. […]

[2] = tested on: VIN3 PHD superdomain; assay: Interaction of negatively charged polymers with VIN3 PHD superdomain (NMR and ITC, summary); type: binding, Phoenix dactylifera; settings: listed as RNA
Protocol: ITC was carried out at 25 °C with an iTC 200 Microcalorimeter (GE Healthcare) in 25 mM Tris pH 8, 150 mM NaCl, and 1 mM DTT. Titrations consisted of 19 consecutive 2 μl injections of 0.25 to 1 mM peptide solution (following a preinjection of 0.5 μl) into 50 μM protein (VIN3PHD, VIN3_123-326, VIN3_116-307, OBE1_193-372, or pVP13 VIN3_130-299) at time intervals of 120 s. ITC data were analyzed using MicroCal PEAQ-IT Analysis Software (Malvern Sciences).
as §1, with “Spectra were processed in TopSpin version 3.2 (Bruker), with linear prediction in t1, giving a digital resolution of 2.2 and 8.2 Hz/point in the processed data.” left out

B1: 63-mer RNA: FLC RNA transcript, 5′ GGGAAAGAGAAAACGCUUAGUAUCUCCGGCGACUUGAACCCAAACCUGAGGAUCAAAUUAGGG 3′ (nucleic acid)
chain: GGGAAAGAGAAAACGCUUAGUAUCUCCGGCGACUUGAACCCAAACCUGAGGAUCAAAUUAGGG
modifications: RNA, backbone not given here; further chemistry not fully specified
What does the source list for B1?
perturbation of BEST-TROSY spectrum (in words) ([1]; 50 μM ^15N-labeled VIN3_123-326, 4 μM 60-mer dsDNA or 63-mer RNA (Fig. 6A, B), ssDNA comparison E. F.-E., unpublished): produced perturbations of the same individual crosspeaks; minimal concentration required to produce spectral perturbations ([1]; BEST-TROSY, 50 μM ^15N-labeled VIN3_123-326, 25 mM Tris pH 8, 150 mM NaCl, 1 mM DTT): 2 µM; propensity for interaction with negatively charged polymers (in words) [2]: moderate propensity for interacting; also recorded: interact weakly; also recorded: can interact instead with negatively charged polymers
